Substitutions are numbered along the chain they refer to. Where two headings read alike, the source gives them in different places.

Data set [1] deals with the molecule itself. In words: crystal structure.
Data set [2] concerns the molecule itself. Briefly: crystal structure. The source holds these as a separate data set.

B1: cysteine-less HCN2I fragment (carboxyl-terminal region of mouse HCN2, C-linker and CNBD, residues 443-640) (domain or fragment, UniProt O88703 443-640, looked up)
chain: DSSRRQYQEKYKQVEQYMSFHKLPADFRQKIHDYYEHRYQGKMFDEDSILGELNGPLREEIVNFNNRKLVASMPLFANADPNFVTAMLTKLKFEVFQPGDYIIREGTIGKKMYFIQHGVVSVLTKGNKEMKLSDGSYFGEISLLTRGRRTASVRADTYSRLYSLSVDNFNEVLEEYPMMRRAFETVAIDRLDRIGKKN
In general, stoichiometry N refers to a count of units in the complex or per binding partner. Regarding B1, in data set [1], the “stoichiometry N” value worked out at 4.

B2: wild-type mouse HCN2I construct (carboxyl-terminal fragment of HCN2, C-linker and CNBD, residues 443-640) (domain or fragment, UniProt O88703 443-640, looked up)
chain: B1 chain with N66C, S142C, S159C
For the protein B2, the “stoichiometry N” value in data set [2] came out at 4.
